One assay has as its target T1, mouse eNOS (mouse, UniProt P70313 2-1202).
T1 construct: whole, on cells; Endogenous protein in mouse wound homogenates used for Co-IP; also called eNOS (mouse wounds)
T1 sequence (looked up): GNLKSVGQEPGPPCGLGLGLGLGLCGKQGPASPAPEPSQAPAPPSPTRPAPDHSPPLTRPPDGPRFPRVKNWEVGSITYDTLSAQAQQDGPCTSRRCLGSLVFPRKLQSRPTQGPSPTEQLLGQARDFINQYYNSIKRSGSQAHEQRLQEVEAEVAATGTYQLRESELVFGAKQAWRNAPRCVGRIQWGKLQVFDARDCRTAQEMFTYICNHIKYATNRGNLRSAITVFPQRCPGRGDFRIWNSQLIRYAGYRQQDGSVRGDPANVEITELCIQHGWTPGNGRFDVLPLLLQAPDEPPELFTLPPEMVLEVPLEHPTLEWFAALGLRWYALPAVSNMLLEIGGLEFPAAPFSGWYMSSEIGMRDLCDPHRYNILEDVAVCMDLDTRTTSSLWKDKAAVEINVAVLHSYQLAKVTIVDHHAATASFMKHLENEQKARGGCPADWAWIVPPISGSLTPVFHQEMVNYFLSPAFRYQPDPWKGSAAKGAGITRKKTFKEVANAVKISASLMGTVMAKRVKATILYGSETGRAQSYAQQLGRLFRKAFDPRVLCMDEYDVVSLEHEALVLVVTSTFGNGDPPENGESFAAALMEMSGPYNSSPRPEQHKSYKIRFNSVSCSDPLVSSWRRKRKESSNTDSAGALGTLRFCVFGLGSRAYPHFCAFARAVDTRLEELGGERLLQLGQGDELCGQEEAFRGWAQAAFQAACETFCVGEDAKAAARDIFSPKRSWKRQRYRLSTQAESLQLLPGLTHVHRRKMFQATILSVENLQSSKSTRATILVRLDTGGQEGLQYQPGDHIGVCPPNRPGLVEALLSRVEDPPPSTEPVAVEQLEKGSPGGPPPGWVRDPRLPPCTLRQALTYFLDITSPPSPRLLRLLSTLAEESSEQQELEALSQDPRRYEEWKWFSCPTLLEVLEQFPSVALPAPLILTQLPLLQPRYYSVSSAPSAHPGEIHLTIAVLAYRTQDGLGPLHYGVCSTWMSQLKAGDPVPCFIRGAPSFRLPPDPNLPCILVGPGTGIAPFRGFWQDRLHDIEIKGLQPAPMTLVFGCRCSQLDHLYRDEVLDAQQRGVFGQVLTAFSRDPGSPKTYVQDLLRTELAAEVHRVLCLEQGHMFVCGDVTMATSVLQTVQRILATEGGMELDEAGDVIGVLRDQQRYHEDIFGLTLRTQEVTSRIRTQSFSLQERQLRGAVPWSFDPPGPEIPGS
Briefly: Co-IP from mouse wounds (FIG. 4).

The target in the next assay is calmodulin (CaM) (human, UniProt P0DP23 2-149). Briefly: Co-IP in endothelial cells; not affected by Myr-CBD7 pretreatment.

B1: mouse CCR10 (receptor, UniProt Q9JL21 1-362, looked up)
chain: MGTKPTEQVSWGLYSGYDEEAYSVGPLPELCYKADVQAFSRAFQPSVSLMVAVLGLAGNGLVLATHLAARRTTRSPTSVHLLQLALADLLLALTLPFAAAGALQGWNLGSTTCRAISGLYSASFHAGFLFLACISADRYVAIARALPAGQRPSTPSRAHLVSVFVWLLSLFLALPALLFSRDGPREGQRRCRLIFPESLTQTVKGASAVAQVVLGFALPLGVMAACYALLGRTLLAARGPERRRALRVVVALVVAFVVLQLPYSLALLLDTADLLAARERSCSSSKRKDLALLVTGGLTLVRCSLNPVLYAFLGLRFRRDLRRLLQGGGCSPKPNPRGRCPRRLRLSSCSAPTETHSLSWDN
notes: whole, on cells; Endogenous protein in mouse wound homogenates used for Co-IP; also called CCR10 (mouse wounds)
As for B1, the binding result with mouse eNOS is listed as “binds”.

B2: human endothelial nitric oxide synthase (eNOS) (enzyme)
chain: GNLKSVAQEPGPPCGLGLGLGLGLCGKQGPATPAPEPSRAPASLLPPAPEHSPPSSPLTQPPEGPKFPRVKNWEVGSITYDTLSAQAQQDGPCTPRRCLGSLVFPRKLQGRPSPGPPAPEQLLSQARDFINQYYSSIKRSGSQAHEQRLQEVEAEVAATGTYQLRESELVFGAKQAWRNAPRCVGRIQWGKLQVFDARDCRSAQEMFTYICNHIKYATNRGNLRSAITVFPQRCPGRGDFRIWNSQLVRYAGYRQQDGSVRGDPANVEITELCIQHGWTPGNGRFDVLPLLLQAPDDPPELFLLPPELVLEVPLEHPTLEWFAALGLRWYALPAVSNMLLEIGGLEFPAAPFSGWYMSTEIGTRNLCDPHRYNILEDVAVCMDLDTRTTSSLWKDKAAVEINVAVLHSYQLAKVTIVDHHAATASFMKHLENEQKARGGCPADWAWIVPPISGSLTPVFHQEMVNYFLSPAFRYQPDPWKGSAAKGTGITRKKTFKEVANAVKISASLMGTVMAKRVKATILYGSETGRAQSYAQQLGRLFRKAFDPRVLCMDEYDVVSLEHETLVLVVTSTFGNGDPPENGESFAAALMEMSGPYNSSPRPEQHKSYKIRFNSISCSDPLVSSWRRKRKESSNTDSAGALGTLRFCVFGLGSRAYPHFCAFARAVDTRLEELGGERLLQLGQGDELCGQEEAFRGWAQAAFQAACETFCVGEDAKAAARDIFSPKRSWKRQRYRLSAQAEGLQLLPGLIHVHRRKMFQATIRSVENLQSSKSTRATILVRLDTGGQEGLQYQPGDHIGVCPPNRPGLVEALLSRVEDPPAPTEPVAVEQLEKGSPGGPPPGWVRDPRLPPCTLRQALTFFLDITSPPSPQLLRLLSTLAEEPREQQELEALSQDPRRYEEWKWFRCPTLLEVLEQFPSVALPAPLLLTQLPLLQPRYYSVSSAPSTHPGEIHLTVAVLAYRTQDGLGPLHYGVCSTWLSQLKPGDPVPCFIRGAPSFRLPPDPSLPCILVGPGTGIAPFRGFWQERLHDIESKGLQPTPMTLVFGCRCSQLDHLYRDEVQNAQQRGVFGRVLTAFSREPDNPKTYVQDILRTELAAEVHRVLCLERGHMFVCGDVTMATNVLQTVQRILATEGDMELDEAGDVIGVLRDQQRYHEDIFGLTLRTQEVTSRIRTQSFSLQERQLRGAVPWAFDPPGSDTNSP
notes: whole, on cells; Endogenous intracellular / membrane-associated protein of human endothelial cells; co-immunoprecipitated from lysates
For B2, the binding result in the assay with calmodulin (CaM) is listed as “binds”.

These data come from US20220265759A1 (BOARD OF TRUSTEES OF THE UNIVERSITY OF ILLIOIS, published 2022).
